Test results taken from patent publication US20240293460A1 (published 2024).

Biological target: soluble DKK1 peptide P20/HLA-A2 complex (human;, UniProt P61769 21-119; O94907 20-29)
Experiment: SPR

Kd [µM] | Binder
0.0176 | DKK1-A2 mAb HMB1 (antibody, V domains shown) VH: QVQLKESGPGLVAPSQSLSITCTVSGFSLTDFAVTWIRQPPGKGLEWLGVIWGGGSTYYNSALKSRLSISKDNSKSQVFLKMNSLQTDDTAMYYCAKTTPIYFDYDHALDYWGQGTSVTVSS VL: DVVVTQTPLSLPVSFGDQVSISCRSSQSLTNSYGNTYLSWYLHKPGQSPQLLIYGISNRFSGVPDRFSGSGSGTDFTLKISTIKPEDLGMYYCLQGTHQPYTFGGGTKLEIK
2.78 | DKK1-A2 mAb HMB7 (antibody, V domains shown) VH: EVQLQQSGAELVKPGASVKLSCTASGFNIKDTYMHWVKQRPEQGLEWIGRIDPANGDTKYDPKFQGKATITADTSSNTAYLHLSSLTSEDTAVYYCARGRYYYGTSSFDYWGQGTTLTVSS VL: DIVMTQSHKFMSTSVGDWVSITCKAWQDVDTAVAWYQQKPGQSPKLLIYWASTRHTGVPDRFTGSGSGTDFTLTISNVQSEDLADYFCQQYSSYPYTFGGGTKLEIK
